Experimental data published in IntAct's records for PubMed 25266290.

B1: Ras-related protein Rab-5A (Homo sapiens), P20339 (parent)
chain: MASRGATRPNGPNTGNKICQFKLVLLGESAVGKSSLVLRFVKGQFHEFQESTIGAAFLTQTVCLDDTTVKFEIWDTAGQERYHSLAPMYYRGAQAAIVVYDITNEESFARAKNWVKELQRQASPNIVIALSGNKADLANKRAVDFQEAQSYADDNSLLFMETSAKTSMNVNEIFMAIAKKLPKNEPQNPGANSARGRGVDLTEPTQPTRNQCCSN
partner: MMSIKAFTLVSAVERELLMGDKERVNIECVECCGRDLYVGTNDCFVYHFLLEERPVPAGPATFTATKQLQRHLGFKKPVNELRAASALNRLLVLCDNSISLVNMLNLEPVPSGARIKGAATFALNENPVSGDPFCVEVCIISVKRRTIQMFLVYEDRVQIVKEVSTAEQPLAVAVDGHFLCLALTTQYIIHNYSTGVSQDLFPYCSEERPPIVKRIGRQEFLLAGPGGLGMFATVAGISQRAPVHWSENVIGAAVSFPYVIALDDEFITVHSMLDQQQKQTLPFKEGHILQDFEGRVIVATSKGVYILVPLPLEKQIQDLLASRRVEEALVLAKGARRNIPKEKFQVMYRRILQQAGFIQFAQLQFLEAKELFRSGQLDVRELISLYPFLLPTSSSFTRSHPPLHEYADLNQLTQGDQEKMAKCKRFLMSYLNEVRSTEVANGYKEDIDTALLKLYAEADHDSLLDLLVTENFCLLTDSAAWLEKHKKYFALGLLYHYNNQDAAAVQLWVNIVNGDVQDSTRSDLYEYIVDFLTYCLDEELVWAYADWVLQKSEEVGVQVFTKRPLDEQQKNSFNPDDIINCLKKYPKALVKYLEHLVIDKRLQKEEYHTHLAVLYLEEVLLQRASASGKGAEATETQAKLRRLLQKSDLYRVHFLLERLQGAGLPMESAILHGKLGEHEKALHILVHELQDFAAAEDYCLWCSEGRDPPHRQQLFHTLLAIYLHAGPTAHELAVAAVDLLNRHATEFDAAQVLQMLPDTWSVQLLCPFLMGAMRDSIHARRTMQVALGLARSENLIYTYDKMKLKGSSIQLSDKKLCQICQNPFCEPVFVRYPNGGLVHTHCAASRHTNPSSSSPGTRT

Variants of: B1
Conditions: with tgfa1_human TGFBRAP1, Q8WUH2

Variant | effect of a mutation on the interaction
S34N | decreasing interaction
